This data set in a line: protein stability index of a GFP-peptide fusion (GPS, HEK-293T) (PSI 1-6); higher = more stable. As to conditions: c terminus: native.
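Also: lentivirally expressed fusion library, cells FACS-sorted into six equal-sized GFP/DsRed ratio bins, PSI computed from sequencing read fractions per bin weighted by bin number.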

EQRNSRWNTVLRAVKAKTHHLEPT [TRPA1 addT]: the protein stability index (parent: NP_015628.1) was 4.19.

Regarding HSLRAVSTDPPHHDHHDEFCLMP [BEX2 WT], the protein stability index (parent: NP_116010.1) came out at 2.48.

As for HSLRAVSTDPPHHDHHDEFCLMPA [BEX2 addA], the protein stability index (parent: NP_116010.1) came to 3.18.

These data come from the supplement of paper PMC10567573.
